Assay results from US20260232828A1, “LIGAND-CYTOTOXICITY DRUG CONJUGATES AND PHARMACEUTICAL USES THEREOF” (HANSOH BIO LLC, priority 2023, published 2026).
Values belong to the molecule of their own block, whether it stands above or below them.

Key:
[1] = biological target: human CDH17 as originally expressed in cells (cell surface CDH17 on AsPC1, GP2d and other cancer cell lines) (human) (UniProt Q12864); assay: flow cytometry competition on AsPC1 cells: unlabelled HBMAB81 0.03-1800 nM against 0.97 nM HBMAB81-AF647, MFI
[2] = biological target: human CDH17 His Tag (Sino biological, catalog number 11360-H08H) (human) (UniProt Q12864); assay: Octet BLI, antibody on AHC biosensor, antigen in solution
[3] = biological target: human CDH17 as originally expressed in cells (cell surface CDH17 on AsPC1, GP2d and other cancer cell lines) (human) (UniProt Q12864); assay: flow cytometry, labelled antibody on AsPC1 cells
[4] = biological target: T1, human CDH17 as originally expressed in cells (cell surface CDH17 on AsPC1, GP2d and other cancer cell lines) (human, UniProt Q12864 23-832); assay: flow cytometry titration on CDH17 positive AsPC1 cells
T1 construct: whole, on cells; Endogenous CDH17 on human cancer cell lines; AsPC1 and GP2d are named CDH17 positive; also called CDH17 positive AsPC1 cells; GP2d cells
Protocol: To determine the binding of recombinant antibody to cell surface CDH17 receptors, cells were first harvested and resuspended in cell staining buffer (BioLegend, Cat #420201) at 1.3-1.5×10⁶ cells/mL. Then, the cells were treated with human Fc receptor blocking reagent (BioLegend, Cat #422302) on the ice for 10 min. The resulting cell suspension was aliquoted into 50 μL aliquots. […] The cells were incubated on the ice for 1 hour and then washed with cell staining buffer twice. 50 μL of secondary antibody (PE conjugated goat anti-human Fc, eBioscience™, 1:250 dilution) was added to each sample to resuspend the cells. The cells were incubated on the ice for another 20 min. Cells were subsequently washed twice with cell staining buffer and resuspended in 4% PFA to fix the cells. The samples were analyzed using iQue3 to measure the median fluorescence intensity using corresponding channels.

[5] = biological target: cynomolgus CDH17-His tag (Acro Biosystems, catalog number CA7-C52H4) (cynomolgus); assay: Octet BLI, antibody on AHC biosensor, antigen in solution
[6] = biological target: T2, human CDH6-His tag (Acro Biosystems, catalog number CA6-H5229) (human, UniProt P55285 54-615); assay: Octet BLI, antibody on AHC biosensor, antigen 200 nM to 3.1 nM
T2 construct: Bought recombinant protein; also called hCDH6; not shown: His tag
T2 sequence (looked up): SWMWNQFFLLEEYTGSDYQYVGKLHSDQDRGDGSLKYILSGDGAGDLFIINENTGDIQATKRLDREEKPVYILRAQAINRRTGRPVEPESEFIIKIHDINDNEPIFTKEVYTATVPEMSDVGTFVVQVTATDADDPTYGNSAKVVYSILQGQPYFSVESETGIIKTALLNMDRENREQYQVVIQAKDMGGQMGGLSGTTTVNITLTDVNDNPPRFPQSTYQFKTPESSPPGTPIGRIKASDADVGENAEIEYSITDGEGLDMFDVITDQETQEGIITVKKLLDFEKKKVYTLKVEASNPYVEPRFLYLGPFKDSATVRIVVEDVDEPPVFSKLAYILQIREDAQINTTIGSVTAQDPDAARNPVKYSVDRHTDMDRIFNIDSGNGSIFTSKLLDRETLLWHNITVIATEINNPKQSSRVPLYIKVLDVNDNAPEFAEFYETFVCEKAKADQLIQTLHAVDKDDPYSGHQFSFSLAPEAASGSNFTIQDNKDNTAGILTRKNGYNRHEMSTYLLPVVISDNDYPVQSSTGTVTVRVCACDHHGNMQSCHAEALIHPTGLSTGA
Protocol: (§1) The affinity between CDH17 antibodies and CDH17 antigens and homologues was determined by Octet (Octet Red 384) instrument. Anti-hIgG Fc Capture (AHC) Biosensors were selected, and the sensors were balanced with buffer solution for 10 min. Subsequently, sensors were dipped into the wells containing 1 μg/ml of CDH17 lead antibodies to load onto the probes. The excess unbound antibodies were washed off. The antigen binding was performed in the wells containing serially diluted human CDH17-His tag (Sino biological, catalog number 11360-H08H), cynomolgus CDH17-His tag (Acro Biosystems, catalog number CA7-C52H4), homologs human CDH6-His tag (Acro Biosystems, catalog number CA6-H5229) and human CDH16-His tag (Sino biological, catalog number 10915-H08H), with concentration ranging from 200 nM to 3.1 nM, for 5 min. Then probes were dipped into wells containing renewed buffer to initiate the dissociation for another 15 min.

[7] = biological target: T3, human CDH16-His tag (Sino biological, catalog number 10915-H08H) (human, UniProt O75309 19-786); assay: as above
T3 construct: Bought recombinant protein; also called hCDH16; not shown: His tag
T3 sequence (looked up): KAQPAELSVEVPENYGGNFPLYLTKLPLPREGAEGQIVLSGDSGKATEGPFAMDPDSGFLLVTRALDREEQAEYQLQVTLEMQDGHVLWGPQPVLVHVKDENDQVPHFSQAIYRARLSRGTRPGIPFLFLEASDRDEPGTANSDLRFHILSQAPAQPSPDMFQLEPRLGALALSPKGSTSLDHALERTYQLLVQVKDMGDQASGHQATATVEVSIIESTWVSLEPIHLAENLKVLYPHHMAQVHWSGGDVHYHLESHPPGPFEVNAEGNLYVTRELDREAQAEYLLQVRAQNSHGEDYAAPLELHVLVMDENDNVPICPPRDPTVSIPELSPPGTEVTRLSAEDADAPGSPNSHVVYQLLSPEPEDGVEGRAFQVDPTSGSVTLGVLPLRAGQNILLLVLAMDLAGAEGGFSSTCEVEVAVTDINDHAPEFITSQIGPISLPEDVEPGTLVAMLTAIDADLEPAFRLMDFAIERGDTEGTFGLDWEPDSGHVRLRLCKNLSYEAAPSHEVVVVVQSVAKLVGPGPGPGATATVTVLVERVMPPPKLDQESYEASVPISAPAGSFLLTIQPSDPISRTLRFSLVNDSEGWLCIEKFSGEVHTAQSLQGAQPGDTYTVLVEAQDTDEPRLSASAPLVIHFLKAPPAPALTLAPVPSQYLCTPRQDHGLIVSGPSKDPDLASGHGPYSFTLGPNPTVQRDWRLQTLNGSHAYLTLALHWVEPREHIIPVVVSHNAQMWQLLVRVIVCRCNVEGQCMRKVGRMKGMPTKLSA
Protocol: as §1

[8] = biological target: T1, human CDH17 as originally expressed in …; assay: cell-based or functional assay
[9] = biological target: T4, human CDH17 His Tag (Sino biological, catalog number 11360-H08H) (human, UniProt Q12864 23-787); assay: Octet BLI, antibody on AHC biosensor, antigen in solution
T4 construct: Bought recombinant protein; also called hCDH17; human CDH17 protein; not shown: His tag
Protocol: as §1

- IC50 (read off the curve) [1]: 0.3 nM
- Kd [2]: 4 nM
- koff [2]: 0.00136 s⁻¹
- kon [2]: 340000 M⁻¹ s⁻¹
Molecule: HBMAB-81, reformatted mAb with the CDH17 binding arm from bispecific antibody BI 905771 and human IgG1 backbone

- EC80 [3]: 0.97 nM
Molecule: HBMAB81-AF647 (HBMAB81 mAb labeled with Alexa Flour 647) (antibody)

- Kd [4]: 0.07 nM
- Kd [5]: 2.5 nM
- koff [5]: 0.00016 s⁻¹
- kon [5]: 620000 M⁻¹ s⁻¹
- binding result [6]: no binding (tested: 200 nM)
- binding result [7]: no binding (tested: 200 nM)
- Kd [9]: 2.2 nM
- koff [9]: 0.000507 s⁻¹
- kon [9]: 230000 M⁻¹ s⁻¹
B1: 14B12 anti-CDH17 recombinant antibody (human IgG1) (antibody, V domains shown)
VH: QVQLQESGPGLVKPSETLSLTCTVSGGSINTYYRSWIRQPPGKGLEWIGYIYYSGNTNYNPSLKSRVTISADTSKNQFSLNLISVTAADTAMYYCARAQYGEEAFDIWGQGTLVTVSS
VL: DIQMTQSPSSLSASVGDRVTITCRASQSITTYLNWYQQKPGKAPQLLIFAASRLQTGVPSRFSGSGSGTDFTLTISSLLPGDFATYYCQQSYNTPPTFGGGTKVEIKR
- IC50 of indirect killing assay to evaluate the internalization in AsPC1 cells [8]: 0.09 nM

- Kd [4]: 0.1 nM
- Kd [5]: 15 nM
- koff [5]: 0.0012 s⁻¹
- kon [5]: 80000 M⁻¹ s⁻¹
- binding result [6]: no binding (tested: 200 nM)
- binding result [7]: no binding (tested: 200 nM)
- Kd [9]: 14.2 nM
- koff [9]: 0.00138 s⁻¹
- kon [9]: 97500 M⁻¹ s⁻¹
B2: 10E11 anti-CDH17 recombinant antibody (human IgG1) (antibody, V domains shown)
VH: EVQLVQSGTEVKKPGESLKISCKDSGYRFSSYWIGWVRQMPGKGLEWMGIIYPGDSDTRYSPSFQGQVTISADKSISTAYLQWRSLKASDTAMYYCARRGWVNYFDYWGQGTLVTVSS
VL: DIQMTQSPSSVSASVGDRVTITCRASQGISNWLGWYQQKPGKAPKLLIYAASSLQSGVPSRFSGSGSGTDFTLTISSLQPEDFATYYCQQANSFPLTFGGGTKVEIKR
- IC50 of indirect killing assay to evaluate the internalization in AsPC1 cells [8]: 0.08 nM
